B1: HPK1 kinase domain (KD TSEE WT) [not stated] / HPK1 intact citron homology domain fragment (C428-E821), untagged [not stated] (parent)
chain 1: CASGPPPNSPRPGPPPSTSSPHLTAHSEPSLWNPPSRELDKPPLLPPKKEKMKRKGCALLVKLFNGCPLRIHSTAAWTHPSTKDQHLLLGAEEGIFILNRNDQEATLEMLFPSRTTWVYSINNVLMSLSGKTPHLYSHSILGLLERKETRAGNPIAHISPHRLLARKNMVSTKIQDTKGCRACCVAEGASSGGPFLCGALETSVVLLQWYQPMNKFLLVRQVLFPLPTPLSVFALLTGPGSELPAVCIGVSPGRPGKSVLFHTVRFGALSCWLGEMSTEHRGPVQVTQVEEDMVMVLMDGSVKLVTPEGSPVRGLRTPEIPMTEAVEAVAMVGGQLQAFWKHGVQVWALGSDQLLQELRDPTLTFRLLGSPRPVVVETRPVDDPTAPSNLYIQE
chain 2: DVVDPDIFNRDPRDHYDLLQRLGGGTYGEVFKARDKVSGDLVALKMVKMEPDDDVSTLQKEILILKTCRHANIVAYHGSYLWLQKLWICMEFCGAGSLQDIYQVTGSLSELQISYVCREVLQGLAYLHSQKKIHRDIKGANILINDAGEVRLADFGISAQIGAELARRLEFIGTPYWMAPEVAAVALKGGYNELCDIWSLGITAIELAELQPPLFDVHPLRVLFLMTKSGYQPPRLKEKGKWSAAFHNFIKVTLTKSPKKRPSATKMLSHQLVSQPGLNRGLILDLLDKLKN

Variants of: B1
Experiment: SPR
Conditions: with HPK1 intact citron homology domain fragment (C428-E821), left plot, plateau of the last (highest) of five successive CHD injections, about 800-900 s, CHD concentrations not given, parent: 30, read off a plot

For chain 2 DVVDPDIFNRDPRDHYDLLQRLGGGTYGEVFKARDKVSGDLVALKMVKMEPDDDVSTLQKEILILKTCRHANIVAYHGSYLWLQKLWICMEFCGAGSLQDIYQVTGSLSELQISYVCREVLQGLAYLHSQKKIHRDIKGANILINDAGEVRLADFGISAQIGAELARRLEFIGTPYWMAPEVAAVALKGGYNELCDIWSLGITAIELAELQPPLFDVHPKRVLFLMTKSGYQPPRLKEKGKWSAAFHNFIKVTLTKSPKKRPSATKMLSHQLVSQPGLNRGLILDLLDKLKN [chain 2 L220K], which response (Response Units) is on record?
The response (Response Units) was 43.
